Key:
[1] = molecular target: Human EphA2-Fc fusion protein (human EphA2 fused with the Fc portion of a human IgG1) (human) (UniProt P29317); assay: single point capture ELISA, 1 µg goat anti-human Fd, biotinylated EphA2-Fc 300-600 ng/well
[2] = molecular target: Human EphA2-Fc fusion protein (human EphA2 fused with the Fc portion of a human IgG1) (human) (UniProt P29317); assay: single point capture ELISA, 20 ng goat anti-human Fab, biotinylated EphA2-Fc 300 ng/well
[3] = molecular target: Human EphA2-Fc fusion protein (human EphA2 fused with the Fc portion of a human IgG1) (human) (UniProt P29317); assay: single point capture ELISA, 100 ng goat anti-human Fab, biotinylated EphA2-Fc 300 ng/well
[4] = molecular target: Human EphA2-Fc fusion protein (human EphA2 fused with the Fc portion of a human IgG1) (human) (UniProt P29317); assay: single point capture ELISA, 500 ng goat anti-human Fab; same plate as VH-6H11/VL-8G7
[5] = molecular target: Human EphA2-Fc fusion protein (human EphA2 fused with the Fc portion of a human IgG1) (human) (UniProt P29317); assay: single point capture ELISA, 500 ng goat anti-human Fab; same plate as VH-2G6/VL-12C8
[6] = molecular target: Human EphA2-Fc fusion protein (human EphA2 fused with the Fc portion of a human IgG1) (human) (UniProt P29317); assay: single point capture ELISA, 500 ng goat anti-human Fab; same plate as VH-233/VL-12C8
[7] = molecular target: Human EphA2-Fc fusion protein (human EphA2 fused with the Fc portion of a human IgG1) (human) (UniProt P29317); assay: single point capture ELISA, 500 ng goat anti-human Fab; same plate as VH-233/VL-8G7
[8] = molecular target: Human EphA2-Fc fusion protein (human EphA2 fused with the Fc portion of a human IgG1) (human) (UniProt P29317); assay: single point capture ELISA, 500 ng goat anti-human Fab, biotinylated EphA2-Fc 300 ng/well
[9] = molecular target: Human EphA2-Fc fusion protein (human EphA2 fused with the Fc portion of a human IgG1) (human) (UniProt P29317); assay: single point capture ELISA, 500 ng goat anti-human Fab; same plate as VH-7E8/VL-8G7
[10] = molecular target: Human EphA2-Fc fusion protein (human EphA2 fused with the Fc portion of a human IgG1) (human) (UniProt P29317); assay: single point capture ELISA, 500 ng goat anti-human Fab, biotinylated EphA2-Fc 300 ng/well; remark: listed apart in the source
[11] = molecular target: Human EphA2-Fc fusion protein (human EphA2 fused with the Fc portion of a human IgG1) (human) (UniProt P29317); assay: as above; remark: listed apart in the source
[12] = molecular target: T1, Human EphA2-Fc fusion protein (human EphA2 fused with the Fc portion of a human IgG1) (human, UniProt P29317 24-534, limits assumed); assay: SPR (BIAcore 3000), EphA2-Fc coupled to CM5 chip (~500 RU), IgG in solution, koff/kon
T1 construct: also called biotinylated human EphA2-Fc; not shown: Fc portion of a human IgG1
Protocol: (§1) EphA2-Fc was coupled to the dextran matrix of a CM5 sensor chip (Pharmacia Biosensor) using an Amine Coupling Kit as described (B. Johnsson et al., 1991, Anal. Biochem. 198: 268-277) at a surface density of approximately 500 RU. IgGs were diluted in 0.01 M HEPES pH 7.4 containing 0.15 M NaCl, 3 mM EDTA and 0.005% P20. All subsequent dilutions were made in the same buffer. All binding experiments were performed at 25° C. with IgG concentrations typically ranging from 100 nM to 0.2 nM at a flow rate of 75 μL/min; data were collected for approximately 25 min and two 30-sec pulse of 1M NaCl, 50 mM NaOH was used to regenerate the surfaces. IgGs were also flowed over an uncoated cell and the sensorgrams from these blank runs subtracted from those obtained with EphA2-Fc-coupled chips. Data were fitted to a 1:1 Langmuir binding model. This algorithm calculates both the kₒₙ and the koff, from which the apparent equilibrium dissociation constant, KD, is deduced as the ratio of the two rate constants (koff/kₒₙ).

[13] = molecular target: T1, Human EphA2-Fc fusion protein (human …); assay: SPR (BIAcore 3000), EphA2-Fc coupled to CM5 chip (~500 RU), IgG in solution, 1:1 Langmuir fit
Protocol: as §1

[14] = molecular target: T1, Human EphA2-Fc fusion protein (human …); assay: SPR (BIAcore 3000), EphA2-Fc coupled to CM5 chip, IgG in solution, koff/kon
Protocol: as §1, with “IgGs” for “EphA2-Fc was coupled to the dextran matrix of a CM5 sensor chip (Pharmacia Biosensor) using an Amine Coupling Kit as described (B. Johnsson et al., 1991, Anal. Biochem. 198: 268-277) at a surface density of approximately 500 RU. IgGs”, “one 1-min” for “two 30-sec”, “1 M” for “1M”

[15] = molecular target: T1, Human EphA2-Fc fusion protein (human …); assay: SPR (BIAcore 3000), EphA2-Fc coupled to CM5 chip, IgG in solution, 1:1 Langmuir fit
Protocol: as §1, with “IgGs” for “EphA2-Fc was coupled to the dextran matrix of a CM5 sensor chip (Pharmacia Biosensor) using an Amine Coupling Kit as described (B. Johnsson et al., 1991, Anal. Biochem. 198: 268-277) at a surface density of approximately 500 RU. IgGs”, “one 1-min” for “two 30-sec”, “1 M” for “1M”

[16] = molecular target: T1, Human EphA2-Fc fusion protein (human …); assay: BIAcore, human IgG1 format on immobilized EphA2-Fc
[17] = molecular target: Human EphA2-Fc fusion protein (human EphA2 fused with the Fc portion of a human IgG1) (human) (UniProt P29317); assay: single point capture ELISA, periplasmic extracts from 15 ml culture, 500 ng goat anti-human Fab
[18] = molecular target: Human EphA2-Fc fusion protein (human EphA2 fused with the Fc portion of a human IgG1) (human) (UniProt P29317); assay: single point capture ELISA, periplasmic Fab on 500 ng goat anti-human Fab, biotinylated EphA2-Fc 300 ng/well

Chain of Human EphA2-Fc fusion protein (human EphA2 fused with the Fc portion of a human IgG1) (human) (P29317 24-534 limits assumed): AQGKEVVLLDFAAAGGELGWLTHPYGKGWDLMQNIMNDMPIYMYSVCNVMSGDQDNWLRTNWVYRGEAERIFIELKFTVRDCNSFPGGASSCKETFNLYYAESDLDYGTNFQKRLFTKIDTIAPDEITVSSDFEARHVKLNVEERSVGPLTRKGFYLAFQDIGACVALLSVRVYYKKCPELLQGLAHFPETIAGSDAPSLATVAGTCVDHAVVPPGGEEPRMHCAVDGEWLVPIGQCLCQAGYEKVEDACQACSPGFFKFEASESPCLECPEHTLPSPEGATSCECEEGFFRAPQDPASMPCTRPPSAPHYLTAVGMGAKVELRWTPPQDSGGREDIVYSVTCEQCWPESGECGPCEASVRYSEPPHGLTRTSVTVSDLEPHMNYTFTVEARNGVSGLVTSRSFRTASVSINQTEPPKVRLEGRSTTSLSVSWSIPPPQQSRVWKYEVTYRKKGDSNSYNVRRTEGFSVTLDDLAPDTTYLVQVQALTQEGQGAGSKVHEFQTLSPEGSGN
T1 sequence (P29317 24-534 limits assumed): as above

## irrelevant antibody (background control of Example 2)
[1]
  OD450 (background signal): 0.3 OD450

## irrelevant antibody (MEDI-493)
[2]
  OD450 (background signal): 0.1 OD450
[3]
  OD450 (background signal): 0.1 to 0.4 OD450
[4]
  OD450 (background signal): 0.2 OD450
[5]
  OD450 (background signal): 0.3 OD450
[6]
  OD450 (background signal): 0.1 OD450
[7]
  OD450 (background signal): 0.2 OD450
[8]
  OD450 (background signal): 0.3 OD450
[9]
  OD450 (background signal): 0.2 OD450
[10]
  OD450 (background signal): 0.06 to 0.2 OD450
[11]
  OD450 (background signal): 0.07 to 0.1 OD450

B1: mAb EA2 (mouse anti-human EphA2 monoclonal antibody) (antibody, V domains shown)
VH: DVKLVESGGGLVKPGGSLKLSCAASGFTFSSYTMSWVRQTPEKRLEWVATISSGGTYTYYPDSVKGRFTISRDNAKNTLYLQMSSLKSEDTAMYYCTREAIFTYWGQGTLVTVSA
VL: DIKMTQSPSSMYASLGERVTITCKASQDINNYLSWFQQKPGKSPKTLIYRANRLVDGVPSRFSGSGSGQDYSLTISSLEYEDMGIYYCLKYDEFPYTFGGGTKLEIK
notes: Murine hybridoma antibody; also called EA2 (murine); parental mAb EA2
[12]
  Kd: 5.94 nM
[13]
  koff: 0.00307 s⁻¹
  kon: 517000 M⁻¹ s⁻¹

B2: mAb B233 (mouse anti-human EphA2 monoclonal antibody) (antibody, V domains shown)
VH: EVKLVESGGGLVQPGGSLSLSCAASGFTFTDYSMNWVRQPPGKALEWLGFIRNKANDYTTEYSASVKGRFTISRDNSQSILYLQMNALRAEDSATYYCVRYPRYHAMDSWGQGTSVTVSS
VL: DIVLTQSPATLSVTPGDSVNLSCRASQSISNNLHWYQQKSHESPRLLIKYVFQSISGIPSRFSGSGSGTDFTLSINSVETEDFGMYFCQQSNSWPLTFGAGTKLELK
notes: Murine hybridoma antibody; also called B233 (murine); parental mAb B233
[14]
  Kd: 0.4 nM
[15]
  koff: 0.00011 s⁻¹
  kon: 280000 M⁻¹ s⁻¹

B3: VH-233/VL-233 IgG (chimaeric form of mAb B233, full length human IgG1) (antibody, V domains shown)
VH: EVKLVESGGGLVQPGGSLSLSCAASGFTFTDYSMNWVRQPPGKALEWLGFIRNKANDYTTEYSASVKGRFTISRDNSQSILYLQMNALRAEDSATYYCVRYPRYHAMDSWGQGTSVTVSS
VL: DIVLTQSPATLSVTPGDSVNLSCRASQSISNNLHWYQQKSHESPRLLIKYVFQSISGIPSRFSGSGSGTDFTLSINSVETEDFGMYFCQQSNSWPLTFGAGTKLELK
notes: Human IgG1 / human kappa constant regions, expressed in HEK 293 cells; also called VH-B233/VL-B233 (chimeric); chimaeric B233
[14]
  Kd: 0.3 nM
[15]
  koff: 8e-05 s⁻¹
  kon: 240000 M⁻¹ s⁻¹

B4: VH-4H5/VL-4H5 full length human IgG1 (antibody, V domains shown)
VH: QVQLLESGGGLVQPGGSLRLSCAASGFTFSSYTMSWVRQAPGQALEWMGTISSGGTYTYYPDSVKGRFTISRDNAKNSLYLQMNSLRAEDTAVYYCAREAIFTYWGRGTLVTVSS
VL: DIQLTQSPSSLSASVGDRVTITCKASQDINNYLSWYQQKPGQAPRLLIYRANRLVDGVPDRFSGSGYGTDFTLTINNIESEDAAYYFCLKYDVFPYTFGQGTKVEIK
notes: Human IgG1 / human kappa, expressed in HEK 293 cells
[16]
  fold avidity increase against parental mAb EA2: 90 fold
[12]
  Kd: 0.067 nM
[13]
  koff: 6.6e-05 s⁻¹
  kon: 980000 M⁻¹ s⁻¹

B5: VH-4H5/VL-“corrected” 4H5 full length human IgG1 (antibody, V domains shown)
VH: QVQLLESGGGLVQPGGSLRLSCAASGFTFSSYTMSWVRQAPGQALEWMGTISSGGTYTYYPDSVKGRFTISRDNAKNSLYLQMNSLRAEDTAVYYCAREAIFTYWGRGTLVTVSS
VL: DIQLTQSPSSLSASVGDRVTITCKASQDINNYLSWYQQKPGQAPRLLIYRANRLVDGVPDRFSGSGYGTDFTLTINNIESEDAAYYFCLKYDEFPYTFGQGTKVEIK
notes: Human IgG1 / human kappa, expressed in HEK 293 cells; also called 4H5 corrected
[16]
  fold avidity increase against parental mAb EA2: 4 fold
[12]
  Kd: 1.4 nM
[13]
  koff: 0.00105 s⁻¹
  kon: 750000 M⁻¹ s⁻¹

B6: VH-6H11/VL-8G7 (humanized) full length human IgG1 (antibody, V domains shown)
VH: EVQLVESGGGLVQPGGSLRLSCAASGFTFSDYSMNWVRQAPGKGLEWVAFIRNKANDYTTEYSASVKGRFTISRDNSKNTLYLQMNSLRAEDTAMYYCARYPRYHAMDSWGQGTLVTVSS
VL: EIVLTQSPATLSVSPGERATLSCRASQSISNNLHWYQQKPGKAPKSLIYYVFQSISGVPSRFSGSGSGTDFTLTINSLEAEDAATYYCQQSNSWPLTFGGGTKVDIK
notes: as for B4
[16]
  fold avidity decrease against parental mAb B233: 6 fold
[14]
  Kd: 1.9 nM
[15]
  koff: 0.00018 s⁻¹
  kon: 96000 M⁻¹ s⁻¹

B7: VH-7E8/VL-8G7 (humanized) full length human IgG1 (antibody, V domains shown)
VH: EVQLVESGGGLVKPGGSLRLSCAASGFTFSDYSMNWVRQASGKGLEWVGFIRNKANDYTTEYSASVKGRFTISRDDSKNTLYLQMNSLKTEDTAVYYCTTYPRYHAMDSWGQGTLVTVSS
VL: EIVLTQSPATLSVSPGERATLSCRASQSISNNLHWYQQKPGKAPKSLIYYVFQSISGVPSRFSGSGSGTDFTLTINSLEAEDAATYYCQQSNSWPLTFGGGTKVDIK
notes: as for B4
[16]
  fold avidity decrease against parental mAb B233: 160 fold
[14]
  Kd: 48 nM
[15]
  koff: 0.00045 s⁻¹
  kon: 9300 M⁻¹ s⁻¹

B8: VH-2G6/VL-12C8 Fab (framework-shuffled, fully humanized clone from library B) (Fab, from another filing, V domains shown)
VH: EVQLVESGGGVVRPGGSLRLSCAASGFTVSDYSMNWVRQAPGKGLEWIGFIRNKANDYTTEYSASVKGRFTISRDDSKNTLYLQMNSLKTEDTAVYYCTTYPRYHAMDSWGQGTMVTVSS
VL: AIQLTQSPSSLSASVGDRVTITCRASQSISNNLHWYLQKPGQSPQLLIYYVFQSISGVPSRFSGSGSGTDFTLTISSLQPEDFATYYCQQSNSWPLTFGGGTKLEIK
[17]
  [specific OD450/background OD450] ratio: 40
[18]
  OD450: 2.8 OD450

B9: VH-2G6/VL-12C8 (humanized) full length human IgG1 (antibody, V domains shown)
VH: EVQLVESGGGVVRPGGSLRLSCAASGFTVSDYSMNWVRQAPGKGLEWIGFIRNKANDYTTEYSASVKGRFTISRDDSKNTLYLQMNSLKTEDTAVYYCTTYPRYHAMDSWGQGTMVTVSS
VL: AIQLTQSPSSLSASVGDRVTITCRASQSISNNLHWYLQKPGQSPQLLIYYVFQSISGVPSRFSGSGSGTDFTLTISSLQPEDFATYYCQQSNSWPLTFGGGTKLEIK
notes: as for B4
[16]
  fold avidity decrease against parental mAb B233: 10 fold
[14]
  Kd: 3 nM
[15]
  koff: 0.00019 s⁻¹
  kon: 64000 M⁻¹ s⁻¹

Reference: patent publication US20060228350A1 (AstraZeneca / MedImmune, published 2006)
